From patent publication US20120171210A1, “METHODS AND COMPOSITIONS FOR INHIBITING C-MET DIMERIZATION AND ACTIVATION” (Genentech, Inc., priority 2003, published 2012)

Assays:
[1] = target: T1, Met extracellular domain deletion mutants (EC-WT, ΔS, ΔP, ΔIPT3, TM) (Homo sapiens, UniProt P08581); experiment: Co-immunoprecipitation of HGF / scHGF with V5/His-tagged Met deletion mutants; type: binding; details: lysates of transfected 293 cells incubated with 5 μg HGF or scHGF, HGF α chain immunoblot
T1 construct: Sub-domain deletions of the Met extracellular domain were made from the N-terminus and tagged after the TM region with V5/His; expressed in transfected cells; host or cells: 293 cells (lysates)
Excerpt: Extracellular sub-domain deletions of c-Met were constructed using conventional PCR methods. N-terminal primers containing the start of Sema, PSI, first IPT, or fourth IPT domains flanked by a KpnI site were paired with a C-terminal primer up to Met residue 959 flanked by a StuI site. c-Met was used as template and the PCR fragments for each clone were inserted into pCR-Blunt II-TOPO vector using the Zero Blunt TOPO PCR cloning kit (Invitrogen) according to manufacturer's instructions. The clones were confirmed by DNA sequencing. The constructs were then subcloned into pcDNA3.1 V5/His vector (Invitrogen) via KpnI and EcoRV to add a tag at the C-terminus. The signal peptide of Met was added via the HindIII and KpnI sites at the N-terminus of each clone. Each clone was digested with HindIII and EcoRV and subcloned into pRK5TKneo vector via HindIII and PmeI. For EC-WT Flag and EC-WT V5/His clones, an N-terminal primer containing a HindIII site was paired with a C-terminal primer up to Met residue 595 flanked by a StuI site. EC-WT V5/His was subcloned via HindIII/StuI into the HindIII/EcoRV sites of pcDNA3.1 V5/His, and then subcloned into pRK5TKneo as described above. For EC-WT Flag, the PCR fragment was ligated to pCR-Blunt II-TOPO vector. […]
Cell lines were obtained from American Type Culture Collection (ATCC). […] Proteins were detected by enhanced chemiluminescence (ECL-Plus, Amersham). […]

[2] = system: recombinant EC-Met and Sema domain proteins; experiment: Coimmunoprecipitation with recombinant EC-Met and Sema domain proteins; type: binding; details: data not shown
[3] = target: T2, Met (Homo sapiens, UniProt P08581); details: Lokker et al., 1992; cited from earlier work
Target sequence in this assay (P08581 25-1390): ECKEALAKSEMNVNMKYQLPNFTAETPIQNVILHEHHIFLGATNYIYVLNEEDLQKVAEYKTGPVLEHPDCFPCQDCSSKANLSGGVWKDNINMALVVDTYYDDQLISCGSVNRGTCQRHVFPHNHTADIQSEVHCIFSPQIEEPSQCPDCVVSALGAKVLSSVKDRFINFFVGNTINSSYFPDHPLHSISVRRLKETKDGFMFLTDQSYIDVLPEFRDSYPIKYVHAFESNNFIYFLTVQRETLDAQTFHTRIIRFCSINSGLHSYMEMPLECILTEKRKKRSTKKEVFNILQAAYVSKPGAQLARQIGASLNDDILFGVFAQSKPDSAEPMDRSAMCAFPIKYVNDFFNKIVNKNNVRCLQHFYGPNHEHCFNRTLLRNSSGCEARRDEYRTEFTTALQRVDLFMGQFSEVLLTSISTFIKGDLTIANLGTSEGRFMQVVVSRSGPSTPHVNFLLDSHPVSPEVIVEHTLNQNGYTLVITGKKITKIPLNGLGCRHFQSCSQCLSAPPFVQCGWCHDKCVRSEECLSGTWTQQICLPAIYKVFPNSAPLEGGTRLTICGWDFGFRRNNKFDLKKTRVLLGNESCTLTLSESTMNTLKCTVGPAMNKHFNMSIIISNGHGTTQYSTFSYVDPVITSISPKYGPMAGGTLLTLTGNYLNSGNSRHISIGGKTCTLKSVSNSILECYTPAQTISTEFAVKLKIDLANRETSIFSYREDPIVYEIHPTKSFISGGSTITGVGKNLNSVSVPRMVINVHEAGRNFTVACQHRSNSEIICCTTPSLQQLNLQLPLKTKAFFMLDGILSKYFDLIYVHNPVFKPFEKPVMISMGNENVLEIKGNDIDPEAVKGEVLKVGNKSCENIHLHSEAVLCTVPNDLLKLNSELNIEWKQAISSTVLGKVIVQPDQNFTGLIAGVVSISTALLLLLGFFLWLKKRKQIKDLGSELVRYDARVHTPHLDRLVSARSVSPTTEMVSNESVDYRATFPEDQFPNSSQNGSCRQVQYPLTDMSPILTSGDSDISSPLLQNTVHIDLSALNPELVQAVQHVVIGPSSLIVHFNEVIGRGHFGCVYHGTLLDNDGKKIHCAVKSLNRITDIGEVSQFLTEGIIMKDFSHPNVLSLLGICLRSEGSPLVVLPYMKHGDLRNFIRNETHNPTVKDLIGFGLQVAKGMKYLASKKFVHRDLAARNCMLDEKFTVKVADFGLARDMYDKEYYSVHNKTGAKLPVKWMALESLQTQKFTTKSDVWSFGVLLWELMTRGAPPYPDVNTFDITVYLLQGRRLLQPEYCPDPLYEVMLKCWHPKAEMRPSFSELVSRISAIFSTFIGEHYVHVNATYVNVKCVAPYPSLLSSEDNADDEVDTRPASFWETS

[4] = system: H441 cells; experiment: Scrape assay (Met mediated cell motility); type: cell-based, Human; details: H441, 100 ng/ml HGF, serum-free
Description: H441 cells were seeded at a density of 4.5×10^4 cells/well in a 96-well plate with 10% FBS in 50:50 DMEM/F12. The next day, a single scrape was made in the confluent monolayer in each well as described previously (Lorenzato et al., 2002). The cells were then incubated with media containing 0.5% BSA and treated with mock, 10 μg/ml 5D5, 10 μg/ml Sema, or 100 ng/ml HGF. The scrape was monitored and photographed daily. Representative results are shown for Day 2.
H441 cells were used in a scrape assay as a measure of Met mediated cell motility (Lorenzato et al., 2002). H441 cells grown to high density were scraped in each well on day 0 and maintained in serum-free media containing 0.5% BSA for the duration of the experiment (FIG. 6). Cells were either treated with 10 μg/ml rSema or 5D5 or 100 ng/ml HGF as a positive control or mock treated. […] These observations were consistent in four separate experiments.
To examine the effect of rSema on cell motility in the presence of ligand, cells were treated with 0, 0.1, 0.5, or 5 μg/ml rSema plus 20 ng/ml HGF. Cells treated with HGF alone closed the gap completely by Day 1.

[5] = target: T2, Met; experiment: Met tyrosine phosphorylation in A549 cells (immunoprecipitation / phosphotyrosine immunoblot); type: cell-based; design: endogenous in cells; host or cells: A549 (lung carcinoma); details: A549 cells transfected with Met deletion mutants, vs mock
Description: (§1) Cell lines were obtained from American Type Culture Collection (ATCC). 293 cells were maintained in DMEM supplemented with 10% FBS (Sigma), penicillin/streptomycin (GIBCO), and glutamine A549, H441, and MDA-MB-435 cells were maintained in 50:50 DMEM/F12 (Cellgro) supplemented with 10% FBS, penicillin/streptomycin, and glutamine Cells were transfected with 1-12 μg of the indicated constructs using Lipofectamine 2000 (Invitrogen) according to manufacturer's instructions. Twenty-four hrs later cells were harvested with 1% NP40 lysis buffer containing Complete protease inhibitor cocktail tablet and phosphatase inhibitor cocktail 2 (Roche and Sigma, respectively). For Met tyrosine phosphorylation and MAPK phosphorylation studies, cells were serum-starved for 2 hr with 0.5% BSA. Cells treated with 10 μg/ml anti-Met 5D5-Fab or rSema were incubated for an additional 1 hr prior to lysis. Cell debris was centrifuged and the supernatant was precleared with Protein A Sepharose (Sigma) or Protein G-Plus agarose beads (Santa Cruz) for 1 hr. 500 μg of lysates was then immunoprecipitated with 10 μg 5D5 antibody (Genentech) or 35 ul of Met (C-28) agarose conjugate (Santa Cruz) overnight at 4° C. with rotation. For HGF binding studies, 500 μg of lysates were incubated with 5 μg scHGF or HGF followed by immunoprecipitation with 1 μg of V5 antibody. Protein A or G beads were added for an additional 2 hrs before immunoprecipitates were washed 3 times with 1% NP40 lysis buffer. After addition of 2× sample buffer with 10 mM DTT, the samples were run on 4-12% Tris-glycine gels (Invitrogen). […] Proteins were detected by enhanced chemiluminescence (ECL-Plus, Amersham).
(§2) Human tumor cells were treated with increasing concentrations of rSema and analyzed for Met tyrosine phosphorylation and downstream activation of mitogen activated protein kinase (MAPK) upon HGF stimulation. […]
Target sequence in this assay (P08581 308-1390, one chain of several): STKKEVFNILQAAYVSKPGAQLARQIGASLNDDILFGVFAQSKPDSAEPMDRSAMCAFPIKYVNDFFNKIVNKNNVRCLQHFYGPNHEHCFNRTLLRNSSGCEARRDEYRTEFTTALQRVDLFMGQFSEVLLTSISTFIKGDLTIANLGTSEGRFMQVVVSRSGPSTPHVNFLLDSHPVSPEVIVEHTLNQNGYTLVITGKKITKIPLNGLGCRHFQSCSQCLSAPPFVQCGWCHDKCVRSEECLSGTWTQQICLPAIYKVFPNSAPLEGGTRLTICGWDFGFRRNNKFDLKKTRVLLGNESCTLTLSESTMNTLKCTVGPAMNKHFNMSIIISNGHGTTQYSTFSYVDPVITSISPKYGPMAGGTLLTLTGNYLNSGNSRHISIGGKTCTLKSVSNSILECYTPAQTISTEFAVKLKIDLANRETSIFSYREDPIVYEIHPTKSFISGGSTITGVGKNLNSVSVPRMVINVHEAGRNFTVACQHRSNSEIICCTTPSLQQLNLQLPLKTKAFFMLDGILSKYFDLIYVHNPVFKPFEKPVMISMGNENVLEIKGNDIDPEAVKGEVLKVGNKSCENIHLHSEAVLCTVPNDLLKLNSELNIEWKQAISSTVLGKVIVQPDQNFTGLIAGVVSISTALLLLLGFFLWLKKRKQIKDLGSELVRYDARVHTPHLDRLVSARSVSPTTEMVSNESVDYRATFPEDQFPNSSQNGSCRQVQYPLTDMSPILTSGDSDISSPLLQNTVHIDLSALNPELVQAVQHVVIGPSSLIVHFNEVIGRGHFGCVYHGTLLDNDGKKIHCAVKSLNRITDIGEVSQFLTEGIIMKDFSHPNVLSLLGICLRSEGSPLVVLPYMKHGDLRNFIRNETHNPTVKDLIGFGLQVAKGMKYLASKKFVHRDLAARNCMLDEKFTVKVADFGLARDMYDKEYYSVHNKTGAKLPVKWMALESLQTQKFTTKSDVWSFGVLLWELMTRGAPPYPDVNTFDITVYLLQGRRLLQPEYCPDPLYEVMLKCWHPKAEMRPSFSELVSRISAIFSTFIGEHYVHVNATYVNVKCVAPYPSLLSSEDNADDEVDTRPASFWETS

[6] = system: MAPK; experiment: MAPK phosphorylation in A549 cells (immunoblot); type: cell-based, Human; details: A549 cells transfected with Met deletion mutants, vs mock
Description: as §1, §2

T1 sequence (P08581 308-959 limits assumed, stated change not applied, one chain of several): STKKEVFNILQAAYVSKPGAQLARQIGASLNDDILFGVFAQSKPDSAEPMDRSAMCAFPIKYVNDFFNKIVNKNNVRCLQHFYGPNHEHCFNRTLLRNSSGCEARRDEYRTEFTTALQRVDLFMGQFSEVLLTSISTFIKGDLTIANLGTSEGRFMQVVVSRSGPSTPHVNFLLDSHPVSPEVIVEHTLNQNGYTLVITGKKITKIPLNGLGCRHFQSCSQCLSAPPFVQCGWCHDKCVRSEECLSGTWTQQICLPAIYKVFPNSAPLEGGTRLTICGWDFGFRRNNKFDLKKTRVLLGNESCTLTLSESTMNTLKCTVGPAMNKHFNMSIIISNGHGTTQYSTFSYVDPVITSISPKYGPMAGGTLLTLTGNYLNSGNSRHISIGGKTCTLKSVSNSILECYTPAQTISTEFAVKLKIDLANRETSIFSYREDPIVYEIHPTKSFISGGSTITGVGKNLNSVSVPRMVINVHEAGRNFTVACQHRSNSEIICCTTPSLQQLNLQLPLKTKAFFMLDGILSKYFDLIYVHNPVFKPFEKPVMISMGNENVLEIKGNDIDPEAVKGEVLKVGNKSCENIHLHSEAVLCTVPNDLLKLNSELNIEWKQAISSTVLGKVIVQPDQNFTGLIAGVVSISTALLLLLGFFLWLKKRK

scHGF (R494E): Single-chain HGF containing an R494E mutation [reference compound]
binding to Met deletion mutants [1]: only binds EC-WT and not the Sema deleted mutants
binding to recombinant EC-Met and Sema domain proteins [2]: bound to recombinant EC-Met and Sema domain proteins
binding and activation of the Met receptor [3]: binds and inhibits activation of the Met receptor

HGF: Recombinant HGF, cognate ligand of the Met receptor; positive control
binding to Met deletion mutants [1]: bound EC-WT alone
binding to recombinant EC-Met and Sema domain proteins [2]: bound to recombinant EC-Met and Sema domain proteins
gap closure in scrape assay (positive control) [4]: closed the gap by Day 1

B1: EC-WT: membrane-bound extracellular Met construct containing the Sema domain, V5/His tagged, expressed by transfection (protein, UniProt P08581 25-932, looked up)
extracellular domain: ECKEALAKSEMNVNMKYQLPNFTAETPIQNVILHEHHIFLGATNYIYVLNEEDLQKVAEYKTGPVLEHPDCFPCQDCSSKANLSGGVWKDNINMALVVDTYYDDQLISCGSVNRGTCQRHVFPHNHTADIQSEVHCIFSPQIEEPSQCPDCVVSALGAKVLSSVKDRFINFFVGNTINSSYFPDHPLHSISVRRLKETKDGFMFLTDQSYIDVLPEFRDSYPIKYVHAFESNNFIYFLTVQRETLDAQTFHTRIIRFCSINSGLHSYMEMPLECILTEKRKKRSTKKEVFNILQAAYVSKPGAQLARQIGASLNDDILFGVFAQSKPDSAEPMDRSAMCAFPIKYVNDFFNKIVNKNNVRCLQHFYGPNHEHCFNRTLLRNSSGCEARRDEYRTEFTTALQRVDLFMGQFSEVLLTSISTFIKGDLTIANLGTSEGRFMQVVVSRSGPSTPHVNFLLDSHPVSPEVIVEHTLNQNGYTLVITGKKITKIPLNGLGCRHFQSCSQCLSAPPFVQCGWCHDKCVRSEECLSGTWTQQICLPAIYKVFPNSAPLEGGTRLTICGWDFGFRRNNKFDLKKTRVLLGNESCTLTLSESTMNTLKCTVGPAMNKHFNMSIIISNGHGTTQYSTFSYVDPVITSISPKYGPMAGGTLLTLTGNYLNSGNSRHISIGGKTCTLKSVSNSILECYTPAQTISTEFAVKLKIDLANRETSIFSYREDPIVYEIHPTKSFISGGSTITGVGKNLNSVSVPRMVINVHEAGRNFTVACQHRSNSEIICCTTPSLQQLNLQLPLKTKAFFMLDGILSKYFDLIYVHNPVFKPFEKPVMISMGNENVLEIKGNDIDPEAVKGEVLKVGNKSCENIHLHSEAVLCTVPNDLLKLNSELNIEWKQAISSTVLGKVIVQPDQNFT
modifications: extracellular domain V5/His tag, membrane-bound
endogenous Met tyrosine phosphorylation in transfectants [5]: attenuation
phospho-MAPK in transfectants [6]: attenuation
